According to the supplement of paper PMC12636428:

The sequences below were run on Saccharomyces cerevisiae (assay: transcriptional activation domain activity (GFP:mCherry ratio, weighted mean of sorted bins, harmonized to initial dataset scale) (arbitrary fluorescence ratio units); higher = stronger transcriptional activation). Conditions: beta-estradiol 1 µM; induction time 4 h.
How it was run: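 For this assay, yeast diploids with a GFP reporter carried barcoded protein tiles at URA3, each fused to an estradiol-inducible synthetic transcription factor. Induction was a 1:5 dilution into SC with 1 uM beta-estradiol for 4 hours at 30 °C, followed by sorting into 8 bins by GFP:mCherry ratio and barcode sequencing. Tiles under 50 reads were dropped, and activation activity was calculated as the read-weighted mean of bin median fluorescence, averaged across barcodes and linearly mapped onto the initial dataset scale.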

Row | Sequence | transcriptional activation domain activity
1 | IFFSQFGRYWIVFPGILFLTSVALSLILIVMLCIPGINLWTTISINLAIPYWA | 27300
2 | AQQPQKKPGAPKPKGAVRAKSGCYTCRIRRKKCDENPNAEGACQTCVRLRLQC | 66200
3 | MVMMIVCVCVLPCFVYVLWFLCRFFIYLFYYCVHAWPRWHREGGLFSLFFFFF | 30000
4 | KGVAVADRVVKFVAGYVAYATEQDAAKRPEGEEDVETPSSRFVTKLLRHLLSG | 56400
5 | SSNFQTIDNENNVKTPGNKLTDFFQQQSAGWIEGNSSNDDFFGWFDMNMEQGF | 133000
6 | ILQNDLKFDQILESSYNNSNHTVSKFKVSHYVEESGLLDILMQRYGLTAEDFE | 57600
7 | CIVLEKYIGRLLGLPCDMVFSVFTAASTLLYDSQTKEPNPDTSRRLKLCIHWL | 68500
8 | LIHLMNIGQVSILFIHRFLYGLVPLFEITTCAFWPLLVSLWHLNFVLMYCIMF | 66000
9 | KNNDATIDNELTQILNEYNMNFNDNLGTSTSGKNKSACPSSFDANAMTKINPS | 51800
10 | SGSGAEGASGTEHRRRASTRGRGRGRGRGGRAGRGGRAKTNGEGAELAGEEAG | < 6570
11 | SPENVSLAAVTGVYGLGLNPWPTFDYNMLGLDPLVTPFFTTFNFFLGTLFTLP | 74100
12 | MCINMYFWKVFFMWTLIFFGLSYIPLSFPGMSYFFLLQHEIFLIILGNHFLRF | 42000
13 | LADNKFSYLPPTLEELMEEQDCNNGRSFKNFMFSNDTGIDGSAGTDDDYTKVL | 60000
14 | GLPVVLVLVFFGLPTTGFLVFFPADFLVVFFAFLATFLKVVFKGFFAFLLFFP | 74300
15 | ASEAPKEEPKTESAPEPKQESAPESKKEAPAPAASKPEPPKQVEKKKESSSAP | 34300
16 | AYWVVLGIWWFIFQQHCPGPPLPMGKNYLTIGWKQIWLAVKQYKHMPYTFIYL | 53300
17 | MLFLMYIFYLCRCLLLFFLTDIMISLLLPSLFSPLITLFLFFTLFKYMYIYAN | 65400
18 | CDLQQSHYTPWRILFGLREPLVSAMNYLITYIPRGESSVIIGIRTFVLFSLCF | 37900
19 | MRIFVFFSLLFLFFFCYMYYICLLLFCTLQTYIFILYHIIPYSILIYIYYISN | 59200
20 | AAPAAAAAQAAAPVSPAVKAETPVEAPKTIPAAAAPAPAPAKTEAAPAAEPVA | 27500
21 | LSIWVKYLGCIVRWRKVRIFGESILPIQLLVVVVLLTLRPCSICAPLKVLPYK | 66000

Row | Sequence | transcriptional activation domain activity
22 | GHGKLGYFTGKAVASIYRFILSSLHFASIFILLGKPTSSFGFIYLVIMLQFWC | 50200
23 | TSTSGGSLFGGGSTAAPSTGSGGLFGNNSSTPATGAQPGTSLFGKPAGGATAG | 14200
24 | GANADELGHIIVTRRNRFWKIKGIVGGRILSMPELERWTLFVLLMCFRLHIYP | 23900
25 | CMIFGRWACGPALLAVIYAILGVGFAFALVVTRSFASKSYGDRLQFRLRHFFF | 39600
26 | KKKSKKRKEKKEKKRRSKSKKKGKKKRRSRSNSGSSSDSSSEDSSSSSSDSSD | 50500
27 | KDHIGMKCVVAIVCLLDTMHQIFITHALYIYLIKGFANPLILTRLLWTFLIQL | 56400
28 | TAALIELILAIAFRVTMYHLALYGSNVLFRYMRLSNELSNRYANCLVATLNAR | 23200
29 | MFCLRFFVPLLLLPAPSAPPLLILTLLISMWFLHRPCIYCSLLIVGFLISSCS | 55900
30 | KHMHLESKPPQLPPKCSSLRKPTNTLQGTNHAYHEHILNTDMDLKILEDLCNI | 64100
31 | MFLLAFCIQAEYQLKLLYMFFYFFCSYVSSLIVFVSYFGVLVVLAGLNCFFTY | 50300
32 | MSFKFFFCLLIPSFSLFKITYAWSYLMILEVVFSPFFSQVVVFVLFILHHFYH | 53000
33 | EPLFLEAQLIHMINFFETFFHKYETSIDRHNLIRHNALEKYYQGINCGRHMLC | 95700
34 | SNRGSGGGGRATGAHSRRGRGSGDRGGRSSARSRSKSPGAEVAEAGEPAPAVP | 17900
35 | EEEAVVSAATDEAVKEEGRQVDAGSADAGGEAAAPRKKIRKRSKAKPTPEQKL | 21200
36 | CSNIGAQKNQCEFVQLNCHGFNALYLELFYCSKLWKPIIIAILLSCLLMLFGA | 42200
37 | MIIGMWLFCHVGSSFSVYHMFPLLYFRLLLCYLVFWSCFLLTFSKVSFSFLFA | 54400
38 | YIAPCGSWTPYMNLMLGGTVCIFIGFDVFSPFSYRGFITNYFGLFWFCIMFIF | 53600
39 | AAEDVEGEGEAKEKKSKKRRAEANGVGEGEEGERKKKKRKEKAVEQTEEEVKP | 34800
40 | VFFVWICCCYGTHILSVFVDPSGMYIVPLNILGSLLHGSTLPCIVASWLIIHL | 45600
41 | MKPITPKLEEQEPAAYGAAASAATVPTTKRKCVSSACVPCRRRKSKVTPRNPL | 34500
